The target in the assay is ubiquitin agarose (UniProt P0CG48 1-76, linked to agarose beads). In words: pull-down.

This note sets out measurements from article PMC3982999 (Molecular Biology of the Cell, 2014).

B1: GST-spartin 1-408 (domain or fragment)
chain: MEQEPQNGEPAEIKIIREAYKKAFLFVNKGLNTDELGQKEEAKNYYKQGIGHLLRGISISSKESEHTGPGWESARQMQQKMKETLQNVRTRLEILEKGLATSLQNDLQEVPKLYPEFPPKDMCEKLPEPQSFSSAPQHAEVNGNTSTPSAGAVAAPASLSLPSQSCPAEAPPAYTPQAAEGHYTVSYGTDSGEFSSVGEEFYRNHSQPPPLETLGLDADELILIPNGVQIFFVNPAGEVSAPSYPGYLRIVRFLDNSLDTVLNRPPGFLQVCDWLYPLVPDRSPVLKCTAGAYMFPDTMLQAAGCFVGVVLSSELPEDDRELFEDLLRQMSDLRLQANWNRAEEENEFQIPGRTRPSSDQLKEASGTDVKQLDQGNKDVRHKGKRGKRAKDTSSEEVNLSHIVPCEPV
As for B1, the binding result is on record as “binds”.
